Measured values reported in the supplement of paper PMC9732359.
± gives the uncertainty stated by the source.

Assay: protein stability index of a GFP-peptide fusion (yeast GPS) (PSI 1-4); higher = more stable; sorted into four equal gates, so the index is relative within each strain
Method in brief: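 The protein stability index combines read frequencies across sorting gates, each weighted by its gate number and then summed. To obtain those frequencies, a pooled yeast library of GFP fusions to tiled 17-residue yeast protein peptides, on a plasmid also expressing Cherry, was grown to mid-log phase in leucine-free medium. The cells were sorted into four equal gates by GFP/Cherry ratio before plasmid amplification by PCR and Illumina sequencing.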

Sequence	protein stability index (doa10∆)	protein stability index (pdr5∆)	protein stability index (san1∆)	protein stability index (ubr1∆)
IIFQQLLFWTDPRNLVN [YCG1]	2.04 ± 0.082	2.35 ± 0.067	3.1 ± 0.059	2.13 ± 0.11
HRASPADVSIKSILQEI [POP5]	3.11 ± 0.26	3.27 ± 0.1	2.95 ± 0.12	
YFFYASRPEYSCTFWSD [YJL039C/NUP192]	1.22 ± 0.069	1.52 ± 0.084	1.31 ± 0.14	1.62 ± 0.054
IYDDWLDRISSYTAFSR [PRP8]	2.16 ± 0.05	1.75 ± 0.044	1.92 ± 0.073	2.24 ± 0.039
VPYVVTHDGRTIRYPDP [RPS4A]	3.08 ± 0.1	3.16 ± 0.17		3.38 ± 0.19
IFERMIEKCLKASELKL [RPN2]	2.17 ± 0.15	2.21 ± 0.099		1.85 ± 0.079
PSRRERRREQTTYSVDD [ISW2]	2.65 ± 0.26	3 ± 0.062	3.22 ± 0.17	2.35 ± 0.14
LKQEGAANKTVVVVGTV [RPL18A]	2.94 ± 0.27	3.31 ± 0.11	2.51 ± 0.11	3.46 ± 0.12
IYNKMIGVLNNSSESDE [RPN13]	2.74 ± 0.14	3.12 ± 0.12	2.94 ± 0.06	2.94 ± 0.067
VYSKQATFLLTDIKDTL [MCD1]	2.27 ± 0.062	2.3 ± 0.076	2.23 ± 0.086	2.3 ± 0.057
GFFENIETEFLLFTVKL [IRR1]	3.12 ± 0.077	3.2 ± 0.11	3.24 ± 0.049	3.12 ± 0.07
NRANVSKDELREKLAEV [RPS24A]	3.53 ± 0.089	3.24 ± 0.11	3.37 ± 0.072	3.28 ± 0.088
GQFVTLGCTLVTLLANV [RMP1]	2.8 ± 0.11	2.89 ± 0.11	2.73 ± 0.1	2.58 ± 0.048
AVFYTPKELGGLGMISA [PRP8]	3.43 ± 0.13	2.33 ± 0.13	2.4 ± 0.1	2.29 ± 0.24
NDLVKARDLLDDLEKTL [RPN9]	2.97 ± 0.092	3.43 ± 0.097	3.12 ± 0.091	3.15 ± 0.087
VLRTALVHDGLARGLRE [RPS12]	2.57 ± 0.17	2.79 ± 0.16	2.77 ± 0.096	3.25 ± 0.1
EKSRISERDSKDRYING [YMR129W/POM152]	3.01 ± 0.09	3.08 ± 0.062	3.04 ± 0.066	2.54 ± 0.05
SFLFDVLKTLEYKLATY [NUT1]	2.33 ± 0.062	2.18 ± 0.07	3 ± 0.097	2.03 ± 0.074
MAESLVDLEEVMDTIQE [SSN8]		3.02 ± 0.16	3.2 ± 0.19	3.2 ± 0.093
TDVKLTLPQPRLNKLNS [SMD1]	2.73 ± 0.066	2.79 ± 0.059	2.1 ± 0.071	2.73 ± 0.059
TMEVKSFPILDQCVGQV [YMR129W/POM152]	2.19 ± 0.09	3.08 ± 0.11	2.34 ± 0.13	2.69 ± 0.06
KVDIFEIPETGEYSVKL [FAS2]	3.17 ± 0.093	3.37 ± 0.08	3.27 ± 0.046	2.99 ± 0.049
EVYNVIASDGSYVNYRH [RPO21]	3.41 ± 0.11	3.58 ± 0.085	2.88 ± 0.12	3.08 ± 0.091
IMGFISYHNGNLKGRPY [FAS2]	3 ± 0.13	2.95 ± 0.11	3.28 ± 0.057	3.01 ± 0.12
QLGLQTVIRGNSIISLE [SMX2]	2.22 ± 0.093	2.57 ± 0.077	2.47 ± 0.07	2.25 ± 0.058
SSFEKFNDSQAIVCYIL [SRP72]	2.43 ± 0.046	2.53 ± 0.047	2.42 ± 0.042	2.63 ± 0.031

Sequence	protein stability index (doa10∆)	protein stability index (pdr5∆)	protein stability index (san1∆)	protein stability index (ubr1∆)
SVVAKQLLNGQKIVVVR [RPL16A]	1.25 ± 0.049	1.36 ± 0.053	1.62 ± 0.11	1.24 ± 0.057
NKLGNDPSLNLKLLAKS [BRR2]	2.64 ± 0.062	2.56 ± 0.079	2.86 ± 0.07	2.55 ± 0.096
QLESIYFRILLPYERHM [SWI1]	1.88 ± 0.055	1.83 ± 0.046	1.68 ± 0.067	1.9 ± 0.053
PHATATEKEPVPAVVDD [SNF6]	3.24 ± 0.11	3.08 ± 0.068	2.82 ± 0.14	3.18 ± 0.087
LQKEFLPHITQLEGFES [RPB2]	1.9 ± 0.047	1.84 ± 0.041	1.69 ± 0.053	1.55 ± 0.025
EQKGQMAKKEGTPKTDS [MED4]	3.22 ± 0.21	3 ± 0.22	3.13 ± 0.19	
LIRPSSKVIIKFLQVMQ [RPS22A]	1.86 ± 0.036	1.82 ± 0.03	2.02 ± 0.052	2.25 ± 0.034
TAAEKKERLTKEAAAVA [RPL8A]	3.25 ± 0.12	2.79 ± 0.16	3.13 ± 0.096	2.89 ± 0.15
QNFAEEDDSSNSCFSDG [REC8]	2.56 ± 0.15	2.59 ± 0.1	2.58 ± 0.12	3.33 ± 0.12
GMPNMPGMPNMPGMPNM [SRP54]	3.37 ± 0.088	3.21 ± 0.064	3.13 ± 0.061	3.14 ± 0.051
RPHQSRESLIMLLEEQL [MED7]	2 ± 0.081	2.37 ± 0.093	1.45 ± 0.19	2.12 ± 0.054
EPYARVSGDLNPIHVSR [FAS1]	2.64 ± 0.14	2.92 ± 0.092	2.76 ± 0.086	2.83 ± 0.1
RMRIFASNEVIAKSRYW [RPL20A]	2 ± 0.049	2.57 ± 0.065	2.54 ± 0.068	2.53 ± 0.035
DGLGNVVDFTSLPEELK [YMR129W/POM152]	3.4 ± 0.096	3.47 ± 0.1	3.3 ± 0.046	3.42 ± 0.095
DYGEEIKSGVAKLESLL [MTW1]	3.26 ± 0.24	3.11 ± 0.12	3.37 ± 0.13	3.4 ± 0.087
ESSHEQEEFVQFLQLDN [ECM29]	3.5 ± 0.21	3.31 ± 0.13	3.22 ± 0.16	3.29 ± 0.14
NLEESSKLDIYTQQQAL [RET1]	2.9 ± 0.087	2.77 ± 0.078	2.47 ± 0.07	2.94 ± 0.079
FLKYYGAHKFLDTYLPE [SIR2]	1.66 ± 0.06	1.77 ± 0.061	1.37 ± 0.1	1.67 ± 0.052
WNKRDFMAFINACAKYG [ISW2]	1.21 ± 0.087	1.24 ± 0.092	1.34 ± 0.26	1.15 ± 0.063
DLSGADIQAMCTEAGLL [RPT2]	2.73 ± 0.12	3.48 ± 0.13	3.46 ± 0.05	3.42 ± 0.062
INAKNIAFASNYGIVEL [RRP43]	2.04 ± 0.053	1.49 ± 0.056	1.4 ± 0.14	1.84 ± 0.051
IVNGQTFSYVDSSLQPE [YMR129W/POM152]	2.47 ± 0.05	2.67 ± 0.059	2.62 ± 0.052	2.06 ± 0.042
ELSNELSRLSTASKIIV [MED1]	2.68 ± 0.087	2.55 ± 0.089	2.72 ± 0.097	3.26 ± 0.077
AKRIRVSHHATTFTHCE [RPB2]	3.07 ± 0.07	3.15 ± 0.074	2.48 ± 0.09	2.88 ± 0.066
KGVATTREKVLEDKLRA [RRP46]	3.36 ± 0.15	3.16 ± 0.12	2.71 ± 0.23	3.04 ± 0.075
